Data as given in the supplement of paper PMC9233669.
Fewer inactive variants are shown than the library holds.

Assays:
[1] = system: biotinyl-Phe-oxazolone; test: self-aminoacylation, catalytic enhancement (BFO) (fold over background); higher = more active; k-Seq, kA / k0A0; sequences stand for … in GGGAAUGGAUCCACAUCUACGAAUUC…UUCACUGCAGACUUGACGAAGCUG
How it was run: (§1)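 Mutagenized RNA pools with a 21-nt variable region (0.43 μM) reacted with each biotinyl-aminoacyl-oxazolone at 2–1250 μM. Reactions ran in 50 μL HEPES/NaCl/KCl/MgCl2/CaCl2 buffer with 5% acetonitrile, pH 6.9–7.0, for 90 minutes at room temperature. Streptavidin-captured RNA was quantified by triplicate qPCR and Illumina sequencing, and per-sequence fraction reacted was fit to a pseudo-first-order model with 1000 bootstraps. Catalytic enhancement is median kA divided by the uncatalyzed rate, the low-activity peak of a bimodal Gaussian fit.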

[2] = system: biotinyl-Ile-oxazolone; test: self-aminoacylation, catalytic enhancement (BIO) (fold over background); higher = more active; k-Seq, kA / k0A0; sequences stand for … in GGGAAUGGAUCCACAUCUACGAAUUC…UUCACUGCAGACUUGACGAAGCUG
How it was run: as §1

[3] = system: biotinyl-Met-oxazolone; test: self-aminoacylation, catalytic enhancement (BMO) (fold over background); higher = more active; k-Seq, kA / k0A0; sequences stand for … in GGGAAUGGAUCCACAUCUACGAAUUC…UUCACUGCAGACUUGACGAAGCUG
How it was run: as §1

[4] = system: biotinyl-Val-oxazolone; test: self-aminoacylation, catalytic enhancement (BVO) (fold over background); higher = more active; k-Seq, kA / k0A0; sequences stand for … in GGGAAUGGAUCCACAUCUACGAAUUC…UUCACUGCAGACUUGACGAAGCUG
How it was run: as §1

[5] = system: biotinyl-Leu-oxazolone; test: self-aminoacylation, catalytic enhancement (BLO) (fold over background); higher = more active; k-Seq, kA / k0A0; sequences stand for … in GGGAAUGGAUCCACAUCUACGAAUUC…UUCACUGCAGACUUGACGAAGCUG
How it was run: as §1

[6] = system: biotinyl-Trp-oxazolone; test: self-aminoacylation, catalytic enhancement (BWO) (fold over background); higher = more active; k-Seq, kA / k0A0; sequences stand for … in GGGAAUGGAUCCACAUCUACGAAUUC…UUCACUGCAGACUUGACGAAGCUG
How it was run: as §1

Row | Sequence | self-aminoacylation [1] | self-aminoacylation [2] | self-aminoacylation [3] | self-aminoacylation [4] | self-aminoacylation [5] | self-aminoacylation [6]
1 | AUUACCGAGGUCAUCGAGUGA [Fam2.1 aminoacylation ribozyme variant] | 38.1 | 3.99 | 6.93 | 4.64 | 8.4 | 10.8
2 | AUUACCGCGGUCAUCGAGUGA [Fam2.1 aminoacylation ribozyme variant] | 36.1 | 3.36 | 5.86 | 3.11 | 6.47 | 7.16
3 | AUUACCGUCGUCAUCGAGUGA [Fam2.1 aminoacylation ribozyme variant] | 8.91 | 2.36 | 3.23 | 2.3 | 3.42 | 3.88
4 | AUUACCGUGAUCAUCGAGUGA [Fam2.1 aminoacylation ribozyme variant] | 44.9 | 4.18 | 9.07 | 4.34 | 8.78 | 10.5
5 | AUUACCGUGGACAUCGAGUGA [Fam2.1 aminoacylation ribozyme variant] | 3.62 | 2.29 | 3.47 | 2.68 | 3.92 | 5.62
6 | AUUACCGUGGCCAUCGAGUGA [Fam2.1 aminoacylation ribozyme variant] | 32.8 | 3.2 | 4.71 | 3.89 | 5.84 | 8.11
7 | AUUACCGUGGUAAUCGAGUGA [Fam2.1 aminoacylation ribozyme variant] | 43.2 | 3.63 | 8.54 | 4.18 | 9.2 | 9.95
8 | AUUACCGUGGUCAACGAGUGA [Fam2.1 aminoacylation ribozyme variant] | 36.7 | 3.61 | 6.41 | 4.21 | 7.25 | 9.2
9 | AUUACCGUGGUCAUCGAGUGG [Fam2.1 aminoacylation ribozyme variant] | 7.04 | 1.27 | 1.85 | 1.33 | 1.81 | 1.72
10 | AUUACCGUGGUCAUCGAGUGU [Fam2.1 aminoacylation ribozyme variant] | 12.9 | 1.89 | 3.17 | 2.46 | 3.51 | 4.27
11 | AUUACCGUGGUCCUCGAGUGA [Fam2.1 aminoacylation ribozyme variant] | 29.2 | 2.57 | 4.11 | 3.69 | 4.19 | 4.82
12 | AUUACCGUGGUUAUCGAGUGA [Fam2.1 aminoacylation ribozyme variant] | 59.4 | 4.22 | 10.7 | 5.1 | 10.4 | 11.4
13 | AUUACCUUGGUCAUCGAGUCA [Fam2.1 aminoacylation ribozyme variant] | 0.473 | 0.854 | 0.691 | 0.81 | 0.786 | 0.599
14 | AUUACCUUGGUCAUCGAGUGA [Fam2.1 aminoacylation ribozyme variant] | 7.72 | 3.7 | 6.66 | 3.88 | 6.89 | 8.16
15 | AUUACCUUGGUCAUCGAGUUA [Fam2.1 aminoacylation ribozyme variant] | 0.913 | 1.18 | 1.19 | 1.03 | 0.814 | 0.524
16 | AUUACGAUGGUCAUCGAGUGA [Fam2.1 aminoacylation ribozyme variant] | 12.3 | 2.99 | 3.43 | 3.17 | 4.54 | 4.79
17 | AUUACGCUGGUAAUCGAGUGA [Fam2.1 aminoacylation ribozyme variant] | 18.7 | 2.84 | 5.48 | 2.77 | 5.76 | 7.02
18 | AUUACGCUGGUCAUCGAGAGA [Fam2.1 aminoacylation ribozyme variant] | 1.36 | 1.21 | 1.44 | 1.73 | 1.42 | 1.59
19 | AUUACGCUGGUCAUCGAGUGA [Fam2.1 aminoacylation ribozyme variant] | 16.1 | 3.16 | 4.57 | 3.23 | 4.69 | 5.76
20 | AUUACGCUGGUCAUCGUGUGA [Fam2.1 aminoacylation ribozyme variant] | 15.4 | 1.62 | 2.48 | 1.6 | 2.59 | 3
21 | AUUACGCUGGUCAUGGAGUGA [Fam2.1 aminoacylation ribozyme variant] | 5.28 | 2.29 | 2.67 | 2.39 | 2.76 | 3.44
22 | AUUACGCUGGUCAUUGAGUGA [Fam2.1 aminoacylation ribozyme variant] | 21.2 | 3.29 | 5.32 | 3 | 5.87 | 6.92
23 | AUUACGCUGGUCCUCGAGUGA [Fam2.1 aminoacylation ribozyme variant] | 44.8 | 4.15 | 6.22 | 4.14 | 6.05 | 6.54
24 | AUUACGCUGGUCUUCGAGUGA [Fam2.1 aminoacylation ribozyme variant] | 12.9 | 3.35 | 4.27 | 3.32 | 5.46 | 5.95
25 | AUUACGCUGGUGAUCGAGUGA [Fam2.1 aminoacylation ribozyme variant] | 25.3 | 2.89 | 4.44 | 2.59 | 5.37 | 5.45
26 | AUUACGGUGGUCAUCGAGUGA [Fam2.1 aminoacylation ribozyme variant] | 5.75 | 2.44 | 2.68 | 2.09 | 2.56 | 3.24
